Source: US20090042805A1

Biological target: other caspases
Assay: cell-based or functional assay

inhibition of the cleavage of AMC substrates by human recombinant caspases (cross-reaction): < 20%
Binder: Ac-VDVAD-aldehyde [Ac-VDVAD-cho]
